Here are results for 5 molecules from publication PMC4079599, “Mixed Disulfide Formation at Cys141 Leads to Apparent Unidirectional Attenuation of Aspergillus niger NADP-Glutamate Dehydrogenase Activity” (PLoS ONE, 2014).

The target of data set [1] is T1, AnGDH (NADP-glutamate dehydrogenase from Aspergillus niger, recombinant) (Aspergillus niger, UniProt B6V7E4).
T1 construct: full-length cDNA in pET43.1(b) NdeI/HindIII, E. coli BL21(DE3), without a tag, purified
T1 sequence (B6V7E4 1-460): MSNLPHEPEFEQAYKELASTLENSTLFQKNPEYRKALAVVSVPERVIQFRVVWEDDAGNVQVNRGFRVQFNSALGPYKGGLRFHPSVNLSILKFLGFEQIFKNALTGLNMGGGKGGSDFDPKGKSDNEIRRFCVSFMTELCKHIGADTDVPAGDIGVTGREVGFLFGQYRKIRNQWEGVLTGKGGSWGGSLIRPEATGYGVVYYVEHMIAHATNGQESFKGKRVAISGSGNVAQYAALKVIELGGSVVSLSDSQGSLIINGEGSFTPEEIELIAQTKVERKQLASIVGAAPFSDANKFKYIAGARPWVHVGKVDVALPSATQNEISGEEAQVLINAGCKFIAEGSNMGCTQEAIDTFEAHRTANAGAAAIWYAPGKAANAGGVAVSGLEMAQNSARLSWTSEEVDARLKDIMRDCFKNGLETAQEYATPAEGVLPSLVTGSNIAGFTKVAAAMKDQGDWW
Kind of data set: time-dependent inactivation of forward activity, kapp versus concentration. The note with it: covalent, mixed disulfide at Cys141; incubation at 37°C; residual activity in standard forward assay pH 8.0. The format is biochemical.

The subject of the next data set is T2, N[C@@H](CCC(=O)O)C(=O)O.
T2 construct: full-length cDNA in pET43.1(b) NdeI/HindIII, E. coli BL21(DE3), without a tag, purified
The data set is described as follows: purified protein. The class given is biochemical, Aspergillus niger. The conditions noted are these: reverse reaction, Tris-HCl pH 9.3, NADP+, room temperature.

Another data set relates to T3, O=C(O)CCC(=O)C(=O)O.
T3 construct: full-length cDNA in pET43.1(b) NdeI/HindIII, E. coli BL21(DE3), without a tag, purified
The data set is described as follows: purified protein. The format is biochemical, Aspergillus niger. The conditions noted are these: forward reaction, sigmoid saturation, Tris-HCl pH 8.0, ammonium chloride and NADPH, room temperature.

The next data set has as its system N. Kind of data set: purified protein. The note with it: forward reaction, Tris-HCl pH 8.0, 2-oxoglutarate and NADPH, room temperature.
For data set [2], the target named is T1, AnGDH (NADP-glutamate dehydrogenase from Aspergillus niger, recombinant). The data set is described as follows: residual forward activity after […] h incubation. The conditions noted are these: covalent; saturated cystine (0.47 mM), 1 h, 37°C; standard forward assay pH 8.0. The format is biochemical.
Substrate in data set [3]: N[C@@H](CCC(=O)O)C(=O)O
Kind of data set: purified protein. The format is biochemical, Aspergillus niger. The conditions noted are these: reverse reaction, Tris-HCl pH 9.3, NADP+, room temperature.

Substrate in data set [4]: NC(=O)C1=CN([C@@H]2O[C@H](COP(=O)(O)OP(=O)(O)OC[C@H]3O[C@@H](n4cnc5c(N)ncnc54)[C@H](OP(=O)(O)O)[C@@H]3O)[C@@H](O)[C@H]2O)C=CC1
The data set is described as follows: purified protein. The class given is biochemical, Aspergillus niger. The note with it: forward reaction, Tris-HCl pH 8.0, 2-oxoglutarate and ammonium chloride, room temperature.

Substrate in data set [5]: NC(=O)c1ccc[n+]([C@@H]2O[C@H](COP(=O)(O)OP(=O)(O)OC[C@H]3O[C@@H](n4cnc5c(N)ncnc54)[C@H](OP(=O)(O)O)[C@@H]3O)[C@@H](O)[C@H]2O)c1
The data set is described as follows: purified protein. The note with it: reverse reaction, Tris-HCl pH 9.3, L-glutamate, room temperature. The format is biochemical, Aspergillus niger.

Substrate in data set [6]: O=C(O)CCC(=O)C(=O)O
Kind of data set: purified protein. The class given is biochemical, Aspergillus niger. The conditions noted are these: forward reaction, sigmoid saturation, Tris-HCl pH 8.0, ammonium chloride and NADPH, room temperature.

Substrate in data set [7]: N
Kind of data set: purified protein. The note with it: forward reaction, Tris-HCl pH 8.0, 2-oxoglutarate and NADPH, room temperature. This is another data set of the same source.

Turning to `OCCSSCCO` [2-HED], in data set [1], the “second order inactivation rate constant” value was 0.937 M⁻¹ s⁻¹.
Regarding “AnGDH (NADP-glutamate dehydrogenase from Aspergillus niger, recombinant) (Aspergillus niger; C415S)”, the Km in the data set with N[C@@H](CCC(=O)O)C(=O)O is 36800 µM. The same molecule yielded a K0.5 in the data set on O=C(O)CCC(=O)C(=O)O of 15.50 mM.
As to “AnGDH (NADP-glutamate dehydrogenase from Aspergillus niger, recombinant) (Aspergillus niger; C141S)”, the Michaelis constant (Km) was found to be 1200 µM in the data set on N and 28600 µM in the data set with N[C@@H](CCC(=O)O)C(=O)O. In the data set on O=C(O)CCC(=O)C(=O)O, this molecule displayed a K0.5 of 4.00 mM.
As to `N[C@@H](CSSC[C@H](N)C(=O)O)C(=O)O` [Cystine], the “Residual activity (%) / Forward” value in [2] is recorded as 8.3±1.9%.

B1: AnGDH (NADP-glutamate dehydrogenase from Aspergillus niger, recombinant) (Aspergillus niger) (protein)
chain: T1 sequence (B6V7E4 1-460)
notes: full-length cDNA in pET43.1(b) NdeI/HindIII, E. coli BL21(DE3), without a tag, purified
For B1, the Km was found to be 30900 µM in the data set “purified protein [3]”, 23 µM in “purified protein [4]”, 28 µM in “purified protein [5]” and 1100 µM in “purified protein [7]”. Moreover, the K0.5 in “purified protein [6]” turned out to be 5.70 mM.
